Laboratory results as given in patent US10689452 (UNIVERSIT T STUTTGART, dated 2020).

Key:
[1] = molecular target: T1, human TNFR1 on cells (HT1080, HeLa, Kym-1) (human, UniProt P19438 30-455); test: cell-based or functional assay
T1 sequence (looked up): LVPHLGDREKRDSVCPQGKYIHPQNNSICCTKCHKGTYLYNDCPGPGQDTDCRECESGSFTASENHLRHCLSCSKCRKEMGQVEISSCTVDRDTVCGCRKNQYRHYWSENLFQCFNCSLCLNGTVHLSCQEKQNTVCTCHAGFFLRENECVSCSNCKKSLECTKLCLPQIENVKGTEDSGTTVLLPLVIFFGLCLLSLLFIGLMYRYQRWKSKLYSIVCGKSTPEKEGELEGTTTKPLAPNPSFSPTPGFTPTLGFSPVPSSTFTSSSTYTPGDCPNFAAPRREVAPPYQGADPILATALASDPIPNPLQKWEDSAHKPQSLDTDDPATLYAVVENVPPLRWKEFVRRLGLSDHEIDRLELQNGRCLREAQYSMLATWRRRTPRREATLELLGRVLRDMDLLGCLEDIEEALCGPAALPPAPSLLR

[2] = molecular target: T2, human TNFR1-Fc fusion protein (human, UniProt P19438 29-211); test: ELISA, human TNFR1-Fc
T2 construct: range 29-211; Made in stably transfected HEK293 cells; coated on ELISA plates or immobilised on QCM chips; also called huTNFR1-Fc; human TNFR-Fc; not shown: Fc part from vector pSecTagL1-Fc
T2 sequence (looked up): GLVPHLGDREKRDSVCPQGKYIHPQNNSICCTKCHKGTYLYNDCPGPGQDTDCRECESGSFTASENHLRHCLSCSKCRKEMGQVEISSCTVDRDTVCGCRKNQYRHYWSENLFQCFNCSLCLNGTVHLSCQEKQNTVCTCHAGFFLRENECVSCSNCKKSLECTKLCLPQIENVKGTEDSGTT

[3] = molecular target: T2, human TNFR1-Fc fusion protein; test: QCM, human TNFR1-Fc, moderate receptor density (86 Hz), koff1
Procedure: (§1) Real-time binding dynamics in protein-protein interactions were determined by quartz crystal microbalance measurements (A-100 C-Fast or Cell-200 C-Fast, Attana, Stockholm, Sweden). One of the binding partners (ligand, e.g. TNFR1-Fc) was chemically immobilized on a carboxyl sensor chip according to the manufacturer's protocol at different densities (nearly 200 Hz in the case of saturating conditions to confirm previously published results and 50-100 Hz, in particular at about 50 Hz, to establish conditions of lower receptor density, better resembling the situation on the cellular surface). Binding experiments were performed with samples (analyte) diluted in PBST (PBS, 0.1% Tween 20) at pH 7.4 with a flow rate of 25 µl/min at 37° C. The chip was regenerated with 25 µl 5 mM NaOH or 20 mM glycine, pH 2.0. Every third measurement, an injection of running buffer was measured which was subtracted from the binding curve. Data were collected using the software provided by Attana for the particular device and analyzed by Attaché Office Evaluation software (Attana, Stockholm, Sweden) and TraceDrawe (ridgview instruments, Vange, Sweden).

[4] = molecular target: T2, human TNFR1-Fc fusion protein; test: QCM, human TNFR1-Fc, moderate receptor density (86 Hz), KD1
Procedure: as §1

[5] = molecular target: T3, human TNFR2-Fc fusion protein (human, UniProt P20333 23-257); test: ELISA on coated receptor-Fc fusion proteins, one antibody concentration (not given on the sheet)
T3 construct: whole entry named; also called huTNFR2
T3 sequence (looked up): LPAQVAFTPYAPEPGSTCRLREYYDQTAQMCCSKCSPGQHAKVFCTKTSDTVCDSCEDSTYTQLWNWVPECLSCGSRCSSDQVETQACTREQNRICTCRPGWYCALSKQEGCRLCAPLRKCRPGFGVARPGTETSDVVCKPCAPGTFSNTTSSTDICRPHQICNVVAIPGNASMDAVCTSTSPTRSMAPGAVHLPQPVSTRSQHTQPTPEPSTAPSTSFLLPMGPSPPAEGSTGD
Procedure: (§2) FIG. 12. Species selectivity of scFv13.7 derivatives. […] Presented are mean and SD of two individual experiments.
(§3) Microtiter plates were coated with 100 µl of the indicated protein (1 µg/ml in PBS, see Table 3.3) and incubated at 4° C. over night. The residual binding sites were blocked with 2% MPBS (skim milk in PBS, 200 µl per well) at room temperature for 2 hours and subsequently washed twice with PBS. 100 µl of the samples diluted in 2% MPBS were incubated at room temperature for 1 hour prior to the last incubation step with 100 µl of the HRP conjugated detection antibodies in 2% MPBS. In the case of competition experiments, both analyzed protein samples were prepared individually (either titrated or diluted to a single concentration) and mixed before they were applied to the plate. Bound protein was detected with 100 µl TMB substrate solution, the HRP-reaction was stopped by the addition of 50 µl 1 M H2SO4 and the absorption at the wavelength of 450 nm was measured using the Infinite microtiter plate reader (TECAN, Maennedorf, Switzerland). Between each incubation step and in advance of the detection, the plates were washed three times with PBST and twice with PBS.

[6] = molecular target: T4, mouse TNFR2-Fc fusion protein (mouse, UniProt P25119 23-258); test: as above
T4 construct: range 23-258; not shown: Fc part from vector pSecTagL1-Fc
T4 sequence (looked up): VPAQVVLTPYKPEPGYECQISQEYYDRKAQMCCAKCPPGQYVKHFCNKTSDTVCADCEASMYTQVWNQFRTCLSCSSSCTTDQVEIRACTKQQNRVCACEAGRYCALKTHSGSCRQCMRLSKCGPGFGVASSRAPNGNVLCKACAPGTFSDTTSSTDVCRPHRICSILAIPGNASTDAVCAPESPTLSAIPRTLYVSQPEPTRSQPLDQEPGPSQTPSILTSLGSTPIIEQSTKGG
Procedure: as §2, §3

[7] = molecular target: T5, mouse TNFR1-Fc fusion protein (mouse, UniProt P25118 30-212); test: as above
T5 construct: range 30-212; also called moR1; not shown: Fc part from vector pSecTagL1-Fc
T5 sequence (looked up): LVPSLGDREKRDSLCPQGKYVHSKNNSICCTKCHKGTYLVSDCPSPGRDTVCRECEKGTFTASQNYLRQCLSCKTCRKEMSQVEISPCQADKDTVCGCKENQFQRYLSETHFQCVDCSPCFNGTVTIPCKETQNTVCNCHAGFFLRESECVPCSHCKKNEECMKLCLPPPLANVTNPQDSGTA
Procedure: as §2, §3

[8] = molecular target: T2, human TNFR1-Fc fusion protein; test: QCM, human TNFR1-Fc, moderate receptor density (86 Hz), kon1
Procedure: as §1

[9] = molecular target: T2, human TNFR1-Fc fusion protein; test: ELISA on coated huTNFR1-Fc, antibody titrated, signal as Binding [%]
Procedure: FIG. 13. […] Increasing concentrations were tested for their binding to huTNFR1-Fc in ELISA (n=3, mean±SD).
as §3

[10] = molecular target: T1, human TNFR1 on cells (HT1080, HeLa, …); test: cell-based or functional assay; remark: listed apart in the source
[11] = molecular target: T2, human TNFR1-Fc fusion protein; test: ELISA on coated human TNFR1-Fc, reference curve next to Fv13.7-Fckih0DS
Procedure: as §3

[12] = molecular target: T2, human TNFR1-Fc fusion protein; test: ELISA on coated human TNFR1-Fc, reference curve next to Fab13.7PEG
Procedure: as §3

[13] = molecular target: T2, human TNFR1-Fc fusion protein; test: QCM, moderate receptor density (86 Hz)
Procedure: as §1

[14] = molecular target: T2, human TNFR1-Fc fusion protein; test: QCM, human TNFR1-Fc, high receptor density (184 Hz), OneToOne analysis, koff2
Procedure: as §1, with “curve.” for “curve. Data were collected using the software provided by Attana for the particular device and analyzed by Attaché Office Evaluation software (Attana, Stockholm, Sweden) and TraceDrawe (ridgview instruments, Vange, Sweden).”

[15] = molecular target: T2, human TNFR1-Fc fusion protein; test: QCM, human TNFR1-Fc, high receptor density (184 Hz), OneToOne analysis, KD2
Procedure: as §1, with “curve.” for “curve. Data were collected using the software provided by Attana for the particular device and analyzed by Attaché Office Evaluation software (Attana, Stockholm, Sweden) and TraceDrawe (ridgview instruments, Vange, Sweden).”

[16] = molecular target: T2, human TNFR1-Fc fusion protein; test: QCM, human TNFR1-Fc, high receptor density (184 Hz), OneToOne analysis, kon2
Procedure: as §1, with “curve.” for “curve. Data were collected using the software provided by Attana for the particular device and analyzed by Attaché Office Evaluation software (Attana, Stockholm, Sweden) and TraceDrawe (ridgview instruments, Vange, Sweden).”

[17] = molecular target: T2, human TNFR1-Fc fusion protein; test: QCM

| IC50, IL-6 (nM); inhibition of the response of HeLa cells to 0.1 nM TNF [1] [nM] | IC50, IL-8 (nM); inhibition of the response of HT1080 cells to 0.1 nM TNF [1] [nM] | IL-6 release (pg/ml), HeLa cells [1] [pg/mL] | IL-8 release (pg/ml), HT1080 cells [1] [pg/mL] | koff [3] [s⁻¹] | Kd [4] [nM] | kon [8] [M⁻¹ s⁻¹] | EC50 [2] [nM] | Binder | IC50, Cytotox (nM); inhibition of Kym-1 cell death by 0.01 nM TNF [1] [nM] | also measured |
| --- | --- | --- | --- | --- | --- | --- | --- | --- | --- | --- |
| 145 | 151 | 179 | 128 | 0.015 | 30 | 501000 | – | FabATROSAB (Fab, V domains shown, Fab of ATROSAB; also called Fab fragment of ATROSAB; ATROSAB Fab) VH: QVQLVQSGAEVKKPGSSVKVSCKASGYTFTDFYINWVRQAPGQGLEWIGEIYPYSGHAYYNEKFKARVTITADKSTSTAYMELSSLRSEDTAVYYCARWDFLDYWGQGTTVTVSS VL: DIVMTQSPLSLPVTPGEPASISCRSSQSLLHSNGNTYLHWYLQKPGQSPQLLIYTVSNRFSGVPDRFSGSGSGTDFTLKISRVEAEDVGVYYCSQSTHVPYTFGGGTKVEIKR | 37 | fold weaker binding (higher EC50) compared with Fab13.7 [2]: 8.7 fold; binding result [5]: no binding; binding result [6]: no binding; binding result [7]: no binding; EC50 (read off the curve) [9]: ~10 nM |
| 31 | 19 | 101 | 138 | 0.000732 | 1.6 | 470000 | 1.4 | Fab13.7 (Fab, V domains shown, also called Fab-FRK13.7; Fab3.7) VH: HVQLVQSGAEVKKPGSSVKVSCKASGYTFTDFYINWVRQAPGQGLEWIGEIVPSQGEAKYNDKFKARVTITADKSTSTAYMELSSLRSEDTAVYYCARWDFLDYWGQGTTVTVSS VL: DVQMTQSPSSLSASVGDRVTITCRSSQSLLHSNGNTYLHWYQQKPGKAPKLLIYTVSNRFSGVPSRFSGSGSGTDFTLTISSLQPEDFATYYCSQSTHVPYTFGGGTKVEIKR | 4.7 | IC50 (read off the curve), inhibition of the interleukin release induced by 0.1 nM TNF (axis: IL-6 release [%]) [10]: ~20 nM; EC50 (read off the curve) [11]: ~0.6 nM; EC50 (read off the curve) [12]: ~2 nM; fold stronger affinity than FabATR [13]: 19 fold |
| – | – | 1450 | 4230 | – | – | – | 0.76 | IgG13.7 (antibody, V domains shown, Made transiently in HEK293T cells; also called IgG-FRK13.7) VH: HVQLVQSGAEVKKPGSSVKVSCKASGYTFTDFYINWVRQAPGQGLEWIGEIVPSQGEAKYNDKFKARVTITADKSTSTAYMELSSLRSEDTAVYYCARWDFLDYWGQGTTVTVSS VL: DVQMTQSPSSLSASVGDRVTITCRSSQSLLHSNGNTYLHWYQQKPGKAPKLLIYTVSNRFSGVPSRFSGSGSGTDFTLTISSLQPEDFATYYCSQSTHVPYTFGGGTKVEIK | – | koff [14]: 5.92e-05 s⁻¹; Kd [15]: 0.11 nM; kon [16]: 535000 M⁻¹ s⁻¹; fold improvement of KD compared with ATROSAB (bivalent binding) [17]: 3.5 fold |
